The record followed here is patent US20240050475A1.

In this assay the target is human PRDX4 present on the cell surface of cancer cells (human) (UniProt Q13162). The experiment in a line: flow cytometry on ES-2 cells, control staining.
Chain of UniProt Q13162 (Q13162 38-271 limits assumed): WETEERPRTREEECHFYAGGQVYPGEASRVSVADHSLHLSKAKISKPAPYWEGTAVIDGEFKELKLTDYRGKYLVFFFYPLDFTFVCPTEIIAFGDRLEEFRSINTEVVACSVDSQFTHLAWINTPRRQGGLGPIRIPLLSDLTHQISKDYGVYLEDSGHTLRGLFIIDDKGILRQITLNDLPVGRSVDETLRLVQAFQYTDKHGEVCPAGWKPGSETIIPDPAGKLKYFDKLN

Substance isotype antibody showed a mean (flow cytometry) of 159.
